From the nanobody polyreactivity screen of Harvey et al. (2022)

Assay: yeast display, Sf9 membrane polyspecificity reagent, FACS + sequencing; frameworks hold sequencing errors
Method in brief: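 Genes from sorted yeast were amplified by colony PCR, read by MiSeq 2 × 250 sequencing and filtered on CDR length. These cells carried a synthetic nanobody library in Saccharomyces cerevisiae BJ5465 and were sorted by FACS into low and high (top ~1%) gates on anti-HA and streptavidin fluorescence. Polyreactivity is labelled according to the gate of origin.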

Sequence | polyreactivity (PSR sort gate)
QVQLVESGGGLVQAGGSLRLSCAASGRIFKSYAMGWDRQAPGKERELVAAISRSGGRTYYADSVKGRFTISRDNAKNTVYLQMNSLKPEDTAVYYCAATTIVAPYWGQGTQVTVSS | low polyreactivity
QVQLVESGGGLVQAGGSLRLSCAASGRIFKSYVMGWYRQAPGKERELVAAISWSGGTYYADSVMGRFTNSRDNAKNTVYLQMNCLKPEDTAVYYCAAYYLGSYNPLDYWGQGTQVTVSS | high polyreactivity
QVQLVESGGGLVQAGGSLRLSCAASGRIFKTNAMGWYRQAPGKERELVAGINSSDGSTYYADSVKGRFTISRDIEKNTVYLQMNSLKPEDTAVYYCAAVRYYWGQGTQVTVSS | low polyreactivity
QVQLVESGGGLVQAGGSLRLSCAASGRIFKTYAMGWYRQAPGKERELVAAISIRGGSTYYAESVKGRFTISRDNAKNTVYLQMNSLKPEDTAVYYCNALYGRQIVDYDYWGQGTQVTVSS | low polyreactivity
QVQLVESGGGLVQAGGSLRLSCAASGRIFKWNAMGWYRQAPGKDRELVAAINLSTRSTYYADSVKGRFTISRDNAKNTVYLEMHSLKTVDTAVYYCAAVTYANYYYDAYYYWGQGSQVTVSS | high polyreactivity
QVQLVESGGGLVQAGGSLRLSCAASGRIFKWYAMGWSRQAPGKEWEFVAGISGSAGRTYYADSVKGRCTISRDNAKNTVYLQMNSLKPEDTAVYYCAAVYYSSLYDYWGQGTQVTVSS | low polyreactivity
QVQLVESGGGLVQAGGSLRLSCAASGRIFKWYAMGWYRQAPGKERELVAAISRSGGTTYYADSVKGRFTISRDNAKNTVYLQMNSLKPEDTAVYYCATRNIYFSSVDYWGQGTQVTVSS | high polyreactivity
QVQLVESGGGLVQAGGSLRLSCAASGRIFKWYAMGWYRQAPGKVRELVAAISARGGRTYYADSVKGRFTISRDNAKNTVYLQMNSLKPEDTAVYYCATDYVKSDAYKYYYWGQGTQVTVSS | high polyreactivity
QVQLVESGGGLVQAGGSLRLSCAASGRIFKYNAMGWYRQAPGKERELVAAISSSGGSTYYADSVKGRCTISRDNAKNTVYLQMNSLKPEDTAVYYCAARYNSRVYRYDYWGQGTQVTVSS | high polyreactivity
QVQLVESGGGLVQAGGSLRLSCAASGRIFKYYAMGWYRPAPWKKRELVATISVSGGRTYYADSVKGRFTISRDNAKNTVYLQMNSLKPEDTAVYYCAAYSVIRRRVEYGYWGQGTQVTVSS | high polyreactivity
QVQLVESGGGLVQAGGSLRLSCAASGRIFKYYAMGWYRQAPGKERELVAAISTSVGSTYYADSVKGRFTISRDNAKNTVYLQMNSLKPEDTAVYYCNTRKYHYFLGGAAGNYWGQGTQVTVSS | high polyreactivity
QVQLVESGGGLVQAGGSLRLSCAASGRIFKYYAMGWYRQAPGKERELVAAITSSGVSTYADSVKGRFTISRDNAKNTVYLQMNSLKPEDTAVSYCNAADERSQGWVGCDHWGQCTQVTVSS | low polyreactivity
QVQLVESGGGLVQAGGSLRLSCAASGRIFKYYAMGWYRQAPGKERELVATITSGGRTNYADSVKGRFTISRDNAKNTVYLQMNSLKPEDTAVYYCARRPPASSRYDYWGQGTQVTVSS | high polyreactivity
QVQLVESGGGLVQAGGSLRLSCAASGRIFKYYAMGWYRQAPGKNRELVATISVSGANTYYADSVKGRFTISRDNAKNPVYLQMNSLKREDTAVYFCAAGYAGVSHITRTSRKSHYGYWGQGTQVTVSS | high polyreactivity
QVQLVESGGGLVQAGGSLRLSCAASGRIFKYYARGGYRQAPGKERELVAAISGSGGSTFYADSVKGRFTISRDNAKNTVYLQMNSLKPEDTAVYYCNADEVVWGYNYWGQGTQVTVSS | low polyreactivity
QVQLVESGGGLVQAGGSLRLSCAASGRIFKYYSMGWYRQAPWKERELVAAITRGGSTNYADSVKGRFTISRDNEKNTVYLQMNSLKPEDTAVYYCAVDTVRNHRMDYWGQGTQVTVSS | low polyreactivity
QVQLVESGGGLVQAGGSLRLSCAASGRIFLDYAMGWYRQAPGKERELVAAINSGGRTNYADSVKGRFTISRDNAKNTVYLQMNSLKPEDTAVYYCAAGYWPRWFWPYEYWGQGTQVTVSS | low polyreactivity
QVQLVESGGGLVQAGGSLRLSCAASGRIFLDYVMGWYRQAPGKERELVAAISWSGDRTDYADSVKGRFTISRDNAKNTVYLQMNSLKPEDTAVYYCASTWYFAYSDDYKFDYWGQGTQVTVSS | low polyreactivity
QVQLVESGGGLVQAGGSLRLSCAASGRIFLFYAMGWYRQGPGKERALVAAINWSGTRTYYADSVKGRFTISRDNAKNSVYLHMNSLKPEDTAVYDCNVDTSVYDFSEYDYWGQGTQVTVSS | high polyreactivity
QVQLVESGGGLVQAGGSLRLSCAASGRIFLFYTMGWYRQAPGKERELVAGITFSGGSTYYADSVKGRFTISRDNAKNTVYLQMNSLKPEDTAVYYCNARRWWQSYDYWGQGTQVTVSS | high polyreactivity
QVQLVESGGGLVQAGGSLRLSCAASGRIFLGNAMGWYRPAPGKERELVAAITNGGGSTYYADSVNGRFTISRDNAKNTVYLQMNSLKPEDTAVYYCAAQRWTVKYNYWGQGTQVTVSS | high polyreactivity

Sequence | polyreactivity (PSR sort gate)
QVQLVESGGGLVQAGGSLRLSCAASGRIFLGNAMGWYRQAPGKERELVDAITYSGRSTYYADSVKGRFTISRDNAKNTVYLQMNSLKPEDTAVYYCAARQYWTTDLPFQRYYYWGQGTHVTVSS | low polyreactivity
QVQLVESGGGLVQAGGSLRLSCAASGRIFLGYAMGWYRQAPGQERELVASITSSGGSTYYADSVKGRFTISRDNAKNTVYLLMNSLKPEDTAVYYCAKVGHYRWGWLSRAASDYWGQGTQVTVSS | high polyreactivity
QVQLVESGGGLVQAGGSLRLSCAASGRIFLGYTMGWYRQAPGKERELVAAISKSGDSTYYADSVKGRFTISRDNAKNTVYLQMNSLKPEDTAVYYCAKDYGGRLYYYWGQGTQVTVSS | high polyreactivity
QVQLVESGGGLVQAGGSLRLSCAASGRIFLIYAMGWYRQAPGKERELVAAISWSGGSTYYADSVKGRFTISRDNAKNTVYLQMNSLKPEDTAVYYCNADDVNYGYYSWYDYWGQGTQVTVSS | low polyreactivity
QVQLVESGGGLVQAGGSLRLSCAASGRIFLLNAMGWYRQAPGKERELVADISFNGGSKYYADSVKGRFTISRDNAKNTVYLQMNSLKPEDTAVYYCNADAHNLWFRYYYWGQGTQVTVSS | low polyreactivity
QVQLVESGGGLVQAGGSLRLSCAASGRIFLPYAMGWYGQAPGKERELFASISGSGGRTYYADSVKGRFTISRDHANNTVYLQMISQKPEDTAVYYCANRPVYAGYRFNYWGQGTQLTVSS | high polyreactivity
QVQLVESGGGLVQAGGSLRLSCAASGRIFLQYDMGWYRQAPGKERELVAGISSRGGSMYYADSVKGRFTISRDNAKNTVYLQMNSLKPEDTAVYYGAAQTKRIRYVYKHYYWGQGTQVTVSS | high polyreactivity
QVQLVESGGGLVQAGGSLRLSCAASGRIFLRNAMGWYRQAPGKERELVANITSRGGSTYYADSVKGRFTISRDNAKNTVYLQMNSLKPEDTAVYYCAADPRRYRGFGYVYGGFYYWGQGTQVTVSS | low polyreactivity
QVQLVESGGGLVQAGGSLRLSCAASGRIFLRNTMGWYRQAPGTERELVAAITGRGGSTYYADSVKGRFTISRDNAKNTVYLQMNSLIPEDTAVYYCAARSPGYSPPGPVRLSDYWGQGTQVTVSS | high polyreactivity
QVQLVESGGGLVQAGGSLRLSCAASGRIFLRYAMGWYRQAPGKERELVAVITWSGGSTYYADSVKGRFTISRDNAKNTVYLQMNSLKPEDTAVYYCAADWYPTGFYYWGQGTQVTVSS | low polyreactivity
QVQLVESGGGLVQAGGSLRLSCAASGRIFLTYAMGWYRQAPGKERELVAAISGRGGSTYYADSVNGRFTISRDYAKNTVYLQMNSLKPEDTAVYYCAAAKWVIQTGNYYYWGQGTQVTVSS | low polyreactivity
QVQLVESGGGLVQAGGSLRLSCAASGRIFLTYAMGWYRQAPGKERELVAAISTSGTRTYYADSVKGRFTISRDNAKNTVYLQMNSLKPEDTAVYYCAREKYNYRTYEYWGQGTQVTVSS | high polyreactivity
QVQLVESGGGLVQAGGSLRLSCAASGRIFLTYAMGWYRQAPGKERELVAAITDNGGDTYYADSVKGRFTISRDNAKNTVYLQMNSLKPEDTAVYYCAKTTLSVAGLDFDYWGQGTQVTVSS | low polyreactivity
QVQLVESGGGLVQAGGSLRLSCAASGRIFLVNAMGWYRQAPGKEREFVAAITDNTGSTYYADSVKGRFTISRDNAKNTVYLQMNSLKPEDTAVYYCAKQRGNKRIGYDSWGQGTQVTVSS | low polyreactivity
QVQLVESGGGLVQAGGSLRLSCAASGRIFLVYAMGWYRQAPGKERELVATIRSGGRTNYADSVKGRFTISRDNAKNAVYLQMNSLKPEDTAVYYCNAPPYTSSDQDPAGDYEYWGQGTQVTVSS | high polyreactivity
QVQLVESGGGLVQAGGSLRLSCAASGRIFLVYGMGWSRQAPGKERELVASITDRGGSTYYADSVKGRFTISRDNAKNTVYLQMYSLKPEDTAVYYCAADGAFYASTEMDYWGQGTQVTVSS | low polyreactivity
QVQLVESGGGLVQAGGSLRLSCAASGRIFLWNAMGWYRQAPGKERELVAGIRWSTGSTYYADSVKGRFTISRDNAKNTVYLQKNSLKREDTAVYYCNARSFATGSKVPARGYWGQGTQVTVSS | high polyreactivity
QVQLVESGGGLVQAGGSLRLSCAASGRIFLYNDMGWYRQAPGKERELVATITWNVTSTYYADSVKGRFTISRDNAKYTVYLQLNSLKPEDTAVYYCARGDHVGSAGYDYWGQGTQVTVSS | low polyreactivity
QVQLVESGGGLVQAGGSLRLSCAASGRIFLYNGMGWYRQAPGKERELVAGITTGGNTNYADSVKGRFTISRDNAKNTVYLQMNSLKPEDTAVYYCAAEVIVYGWSPDYDYWGQGTQVTVSS | low polyreactivity
QVQLVESGGGLVQAGGSLRLSCAASGRIFLYTAMGWYRQAPGKERELVAAIDGGGTTYADSVKGRFTISRDNAKNTVYLQMNSLKPEDTAVYYCAGDWYYQYSIYRYGYWGQGTQVTVSS | low polyreactivity
